Patent US20140212432A1 (University of California, published 2014)

B1: U33 Fab (Fab, V domains shown)
VH: EVQLVQSGGGLVKPGRSLRLSCTASGFTFGDYAMSWVRQAPGKGLEWVGFIRSKAYGGTTEYAAVKGRFTISRDDSKSIAYLQMNSLKTEDTAVYYCIRGANWNWGQGTLVTVSS
VL: EIVLTQSPLSLPVTPGEPASISCRSSQTLMNRNGNNFLDWYLQKPGQSPQLLIYLGSNRAPGVPDRFSGSGSGTDFTLKISRVEAEDVGVYYCMQRIEFPYTFGQGTKLEIKR
notes: Human Fab from a naive B cell phage display library; also called clone U33; Fab U33
B2: U33 IgG (antibody, V domains shown)
VH: B1 VH
VL: B1 VL
notes: U33 Fab converted to full length IgG; It was detected with an anti-human Fc secondary; The internalisation study used the 111In-DOTA labelled form; also called full length IgG; 111In-U33 IgG

What was measured:
[1] = target: T1, human pro-uPA (zymogen uPA) (human, UniProt P00749 21-431); assay: quantitative ELISA, uPA-coated plates
T1 construct: mature
Procedure: (§1) Serial dilutions of pure U33 were added to uPA coated plates and incubated for 1 hour. The amount of Fab bound to uPA was determined by ELISA. U33 Fab was detected only in wells coated with human active uPA. Panel B depicts inhibition of human uPA by U33. The proteolytic activity of human or mouse uPA was read in absence and presence of 1 μM of U33. The enzyme activity is expressed as percentage of the uPA activity in absence of Fab (100%). […] Serial dilutions of U33-Fab were added to uPAR-uPA coated plates and incubated for 1 hour and the activity of uPA was read. Panel D depicts prevention of uPA binding to PAI-1 coated plates by U33. Serial dilutions of pure U33 (4 μM to 31.2 nM) were pre-incubated overnight with uPA and added to PAI-1 coated plates. The amount of uPA bound to PAI was determined by ELISA. […] Serial dilutions of U33 were added to a uPA-coated plate pre-incubated with and without 1 μM CMK. The amount of U33 Fab bound to uPA was determined by ELISA.
(§2) The affinity and specificity of the U33 Fab was determined using quantitative ELISA as well as inhibition assays with human uPA (active and zymogen) and mouse uPA.

mouse uPA [2] = target: T2, mouse uPA (mouse, UniProt P06869 21-433, limits assumed); assay: quantitative ELISA, uPA-coated plates
T2 construct: The construct is not described; It was active-site titrated in the IgG ELISA, so it was an active form; also called mouse enzyme
T2 sequence (P06869 21-433 limits assumed): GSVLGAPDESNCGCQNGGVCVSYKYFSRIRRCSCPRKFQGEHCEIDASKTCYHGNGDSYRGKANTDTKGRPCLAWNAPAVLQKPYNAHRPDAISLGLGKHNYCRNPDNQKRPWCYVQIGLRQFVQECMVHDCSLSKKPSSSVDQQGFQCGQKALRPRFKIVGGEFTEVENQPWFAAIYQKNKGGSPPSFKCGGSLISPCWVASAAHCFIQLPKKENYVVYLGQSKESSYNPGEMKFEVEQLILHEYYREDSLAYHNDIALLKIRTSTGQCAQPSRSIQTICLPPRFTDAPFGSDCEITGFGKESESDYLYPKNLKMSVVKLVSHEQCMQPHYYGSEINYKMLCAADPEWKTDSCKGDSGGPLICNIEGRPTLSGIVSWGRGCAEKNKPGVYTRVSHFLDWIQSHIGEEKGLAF
Procedure: as §1, §2

[3] = target: T3, active human urokinase-type plasminogen activator (uPA) (human, UniProt P00749 21-177; P00749 179-431); assay: steady-state enzyme inhibition of soluble uPA
uPA-PAI-1 complex [4] = target: T4, uPA-PAI-1 complex (human, UniProt P00749 21-177; P00749 179-431; P05121 24-402); assay: binding of U33 Fab to uPA pre-incubated with PAI-1
[5] = target: T3, active human urokinase-type plasminogen …; assay: enzyme inhibition of uPA
[6] = target: T1, human pro-uPA (zymogen uPA); assay: ELISA, plate coated with pro-uPA
Procedure: (§3) ELISA assays were performed to further assess the selectivity of U33 IgG for uPA compared to highly related serine proteases. All proteases were active site-titrated to ensure that identical concentrations of active protease were adsorbed to the ELISA plate. After blocking, increasing concentrations of U33 IgG were incubated for 1 hour at RT. Unbound U33 IgG was removed by washing and bound U33 IgG was detected with an anti-human Fc-HRP secondary. 50 μL at of 2.8 nM active protease in coating buffer were added to each well in a Nunc Maxisorb ELISA plate and incubated 0/N at 4° C. Unbound protease was removed by hand washing wells 3× with wash buffer. Wells were incubated in 200 μL of Block Solution per well for 2 h at RT. Block Solution was removed by hand washing wells 3× with wash buffer. 50 μL of U33 IgG in Block Solution was added for 1 h at RT. The highest U33 IgG concentration was 651 nM, and was decreased in two-fold increments to 5.1 nM. Unbound U33 IgG was removed by hand washing wells 6× with wash buffer. 50 μL of 1:2000 dilution of secondary antibody in Block Solution was added for 1 h at RT. Unbound secondary antibody was removed by hand washing wells 6× with wash buffer. 100 μL of 1-step Ultra TMB-ELISA was added and then quenched with 100 μL of 1 M HCl. Signal was quantified by measuring A₄₅₀ on plate reader. […]

thrombin = thrombin (UniProt P00734 328-622); assay: ELISA, protease-coated plate, anti-human Fc-HRP detection
Procedure: (§4) ELISA assays were performed to further assess the selectivity of U33 IgG for uPA compared to highly related serine proteases. All proteases were active site-titrated to ensure that identical concentrations of active protease were adsorbed to the ELISA plate. After blocking, increasing concentrations of U33 IgG were incubated for 1 hour at RT. Unbound U33 IgG was removed by washing and bound U33 IgG was detected with an anti-human Fc-HRP secondary. 50 μL at of 2.8 nM active protease in coating buffer were added to each well in a Nunc Maxisorb ELISA plate and incubated 0/N at 4° C. Unbound protease was removed by hand washing wells 3× with wash buffer. Wells were incubated in 200 μL of Block Solution per well for 2 h at RT. Block Solution was removed by hand washing wells 3× with wash buffer. 50 μL of U33 IgG in Block Solution was added for 1 h at RT. The highest U33 IgG concentration was 651 nM, and was decreased in two-fold increments to 5.1 nM. Unbound U33 IgG was removed by hand washing wells 6× with wash buffer. 50 μL of 1:2000 dilution of secondary antibody in Block Solution was added for 1 h at RT. Unbound secondary antibody was removed by hand washing wells 6× with wash buffer. 100 μL of 1-step Ultra TMB-ELISA was added and then quenched with 100 μL of 1 M HCl. Signal was quantified by measuring A₄₅₀ on plate reader. Results for U33 binding to uPA, thrombin, HGFA, hepsin, chymotrypsin and trypsin are shown in FIG. 4, panel A. Results for U33 binding to uPA, MT-SP1 and plasmin are shown in FIG. 4, panel B. Results for U33 binding to uPA and tPA are shown in FIG. 4, panel C. […] Therefore U33 IgG can discriminate between proteases with identical catalytic mechanisms and similar protein folds.

HGFA = target: T5, HGFA (UniProt Q04756 373-655, limits assumed); assay: as above
T5 sequence (looked up): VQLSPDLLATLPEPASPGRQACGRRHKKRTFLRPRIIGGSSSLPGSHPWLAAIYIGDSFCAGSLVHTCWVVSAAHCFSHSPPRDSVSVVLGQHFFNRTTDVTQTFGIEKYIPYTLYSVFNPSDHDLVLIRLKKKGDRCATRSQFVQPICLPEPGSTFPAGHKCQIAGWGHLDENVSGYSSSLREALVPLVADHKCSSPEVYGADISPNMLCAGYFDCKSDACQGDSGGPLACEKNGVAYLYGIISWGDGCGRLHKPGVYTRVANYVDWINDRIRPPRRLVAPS
Procedure: as §4

hepsin = hepsin (UniProt P05981 45-417, limits assumed); assay: as above
Sequence of hepsin (P05981 45-417 limits assumed): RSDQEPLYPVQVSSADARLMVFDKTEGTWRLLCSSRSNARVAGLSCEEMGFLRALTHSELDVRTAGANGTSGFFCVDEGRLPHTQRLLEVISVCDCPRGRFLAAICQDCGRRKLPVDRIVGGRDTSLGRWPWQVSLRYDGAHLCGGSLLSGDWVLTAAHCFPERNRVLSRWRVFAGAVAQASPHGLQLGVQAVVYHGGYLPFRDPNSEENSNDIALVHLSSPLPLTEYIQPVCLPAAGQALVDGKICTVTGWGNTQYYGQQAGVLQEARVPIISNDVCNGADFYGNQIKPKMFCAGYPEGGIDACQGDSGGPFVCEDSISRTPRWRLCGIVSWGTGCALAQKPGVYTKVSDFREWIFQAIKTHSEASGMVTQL
Procedure: as §4

MT-SP1 = target: T6, MT-SP1 (UniProt Q9Y5Y6 615-855, limits assumed); assay: as above
T6 sequence (looked up): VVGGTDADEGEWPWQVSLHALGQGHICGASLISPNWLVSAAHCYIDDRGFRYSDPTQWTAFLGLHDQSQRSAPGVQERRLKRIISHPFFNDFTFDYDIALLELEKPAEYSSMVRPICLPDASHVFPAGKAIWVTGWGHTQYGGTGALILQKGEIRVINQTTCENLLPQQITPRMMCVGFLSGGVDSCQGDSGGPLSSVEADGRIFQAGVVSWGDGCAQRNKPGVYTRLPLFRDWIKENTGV
Procedure: as §4

plasmin = plasmin (UniProt P00747 97-810, limits assumed); assay: as above
Sequence of plasmin (P00747 97-810 limits assumed): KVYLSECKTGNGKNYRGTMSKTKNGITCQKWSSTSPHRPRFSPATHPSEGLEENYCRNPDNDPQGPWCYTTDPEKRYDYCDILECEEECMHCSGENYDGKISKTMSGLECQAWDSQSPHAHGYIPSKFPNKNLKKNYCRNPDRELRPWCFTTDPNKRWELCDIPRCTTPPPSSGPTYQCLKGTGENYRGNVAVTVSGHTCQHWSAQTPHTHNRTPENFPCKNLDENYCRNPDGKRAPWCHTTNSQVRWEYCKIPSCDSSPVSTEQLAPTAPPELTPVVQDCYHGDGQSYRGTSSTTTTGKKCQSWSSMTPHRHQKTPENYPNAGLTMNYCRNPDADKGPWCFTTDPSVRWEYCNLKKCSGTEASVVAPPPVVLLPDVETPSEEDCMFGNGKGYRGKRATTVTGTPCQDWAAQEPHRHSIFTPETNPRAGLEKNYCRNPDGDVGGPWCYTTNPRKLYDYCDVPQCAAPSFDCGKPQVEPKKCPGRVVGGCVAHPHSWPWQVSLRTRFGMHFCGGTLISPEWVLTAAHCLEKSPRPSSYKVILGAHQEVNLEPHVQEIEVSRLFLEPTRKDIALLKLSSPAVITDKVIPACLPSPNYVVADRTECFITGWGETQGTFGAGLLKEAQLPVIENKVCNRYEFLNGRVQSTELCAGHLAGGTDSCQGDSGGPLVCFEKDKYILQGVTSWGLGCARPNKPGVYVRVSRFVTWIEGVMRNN
Procedure: as §4

tPA = tPA (UniProt P00750 36-562); assay: as above
Sequence of tPA (P00750 36-562 limits assumed): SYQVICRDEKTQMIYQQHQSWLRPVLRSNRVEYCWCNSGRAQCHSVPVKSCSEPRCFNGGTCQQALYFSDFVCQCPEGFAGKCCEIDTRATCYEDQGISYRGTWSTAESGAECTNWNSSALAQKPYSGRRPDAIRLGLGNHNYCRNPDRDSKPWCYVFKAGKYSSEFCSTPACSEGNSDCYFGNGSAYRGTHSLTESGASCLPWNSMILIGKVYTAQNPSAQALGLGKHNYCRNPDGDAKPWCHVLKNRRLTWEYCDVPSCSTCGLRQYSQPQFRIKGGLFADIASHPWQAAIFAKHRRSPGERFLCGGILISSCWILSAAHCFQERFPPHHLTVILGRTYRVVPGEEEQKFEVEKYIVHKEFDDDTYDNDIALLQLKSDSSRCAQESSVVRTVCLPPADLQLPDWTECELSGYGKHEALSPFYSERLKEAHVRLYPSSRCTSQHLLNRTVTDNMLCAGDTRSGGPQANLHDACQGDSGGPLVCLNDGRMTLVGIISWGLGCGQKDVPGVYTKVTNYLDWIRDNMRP
Procedure: as §4

mouse uPA [7] = target: T2, mouse uPA; assay: as above
Procedure: as §4

uPA-PAI-1 complex [8] = target: T4, uPA-PAI-1 complex; assay: ELISA, uPA-coated plate pre-treated with PAI-1 (133 nM to 8.3 nM)
Procedure: as §3

Binder	binding result [1]	binding result (mouse uPA [2])	Ki [3] [nM]	binding result (uPA-PAI-1 complex [4])	Ki [5] [nM]	binding result [6]	binding result (thrombin)	binding result (HGFA)	binding result (hepsin)	binding result (MT-SP1)	binding result (plasmin)	binding result (tPA)	binding result (mouse uPA [7])	binding result (uPA-PAI-1 complex [8])
B1	no binding	no binding	20	no binding	–	–	–	–	–	–	–	–	–	–
B2	–	–	–	–	10	no binding (tested: highest U33 IgG concentration 651 nM)	no binding (tested: highest U33 IgG concentration 651 nM)	no binding (tested: highest U33 IgG concentration 651 nM)	no binding (tested: highest U33 IgG concentration 651 nM)	no binding (tested: highest U33 IgG concentration 651 nM)	no binding (tested: highest U33 IgG concentration 651 nM)	no binding (tested: highest U33 IgG concentration 651 nM)	no binding (tested: highest U33 IgG concentration 651 nM)	no binding (tested: highest U33 IgG concentration 651 nM)
